Measurements as given in paper PMC4428071 (2015).
Read-outs that look alike come from different tables or passages of the source.

T1: full-length recombinant FC27 MSP2 (Plasmodium falciparum, UniProt P19260 21-261)
T1 chain: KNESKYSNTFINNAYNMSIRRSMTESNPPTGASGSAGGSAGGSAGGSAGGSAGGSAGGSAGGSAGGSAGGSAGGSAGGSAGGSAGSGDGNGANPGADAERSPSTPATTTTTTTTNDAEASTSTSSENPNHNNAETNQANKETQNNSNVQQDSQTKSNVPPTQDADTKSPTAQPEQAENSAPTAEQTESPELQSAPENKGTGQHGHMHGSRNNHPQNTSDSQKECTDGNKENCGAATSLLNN

T2: full-length recombinant 3D7 MSP2 (Plasmodium falciparum, UniProt P50498 21-246)
T2 chain: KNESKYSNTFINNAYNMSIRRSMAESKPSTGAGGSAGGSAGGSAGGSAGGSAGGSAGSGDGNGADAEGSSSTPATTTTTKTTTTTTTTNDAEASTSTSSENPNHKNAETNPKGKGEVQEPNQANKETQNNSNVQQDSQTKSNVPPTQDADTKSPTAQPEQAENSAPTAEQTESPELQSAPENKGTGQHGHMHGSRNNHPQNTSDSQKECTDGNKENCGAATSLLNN

B1: mouse monoclonal antibody 6D8 (antibody, V domains shown)
VH: QVQLQQSGDELVKPGASVKLSCTVSGFNIKDDFIHWMKQRPEQGLEWIGRIDPANGYTKYAPKFQDKATMTADTSSNTAYLQLSSLASEDAAVYYCATYGVAYWGQGTLVTVSA
VL: DIVLTQSPASLAVSLGQRATISCKASQSVDHDGDSYMNWFQQKPGQSPKLLIYAASNLESGIPARFSGSGSGTDFTLNIHPVEEEDAATYYCQQTNEDPYTFGGGTKLEIK
B2: 6D8 scFv (scFv, V domains shown)
VH: B1 VH
VL: B1 VL

Columns and labels:
Test in all cases: ITC
[1] = biological target: T1, full-length recombinant FC27 MSP2
[2] = biological target: T2, full-length recombinant 3D7 MSP2
[3] = biological target: T1, full-length recombinant FC27 MSP2
[4] = biological target: T2, full-length recombinant 3D7 MSP2
6D8 scFv = biological target: B2

| Binder | Kd [1] [nM] | Kd [2] [nM] | Kd [3] [nM] | Kd [4] [nM] | Kd (6D8 scFv) [nM] |
| --- | --- | --- | --- | --- | --- |
| B1 | 16 | 64 | – | – | – |
| B2 | 13 | 61 | 13 | 61 | – |
| NAYNMSIRRSMANEGSN [FC27-MSP2_(14-30)] | – | – | – | – | 16 |
| NAYNMSIRRSMAESKPS [3D7-MSP2_(14-30)] | – | – | – | – | 64 |
